Measurements: the supplement of paper PMC7877785
± gives the uncertainty stated by the source.

Assay: self-splicing fitness, log relative to wild type (ln ratio); higher = more splicing; Tetrahymena group I intron in knt gene, E. coli kanamycin selection, DiMSum; sequences stand for … in CUCUCU…GGAGGGAAAAGUUAUCAGGCAUGCACCUGGUAGCUAGUCUUUAAACCAAUAGAUUGCAUCGGUUUAAAAGGCAAGACCGUCAAAUUGCGGGAAAGGGGUCAACAGCCGUUCAGUACCAAGUCUCAGGGGAAACUUUGAGAUGGCCUUGCAAAGGGUAUGGUAAUAAGCUGACGGACAUGGUCCUAACCACGCAGCCAAGUCCUAAGUCAACAGAUCUUCUGUUGAUAUGGAUGCAGUUCACAGACUAAAUGUCGGUCGGGGAAGAUGUAUUCUUCUCAUAAGAUAUAGUCGGACCUCUCCUUAAUGGGAGCUAGCGGAUGAAGUGAUGCAACACUGGAGCCGCUGGGAACUAAUUUGUAUGCGAAAGUAUAUUGAUUAGUUUUGGAGUACUCGUGGUCG
Procedure, shortened: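 Colonies from six replicate transformations of E. coli BL21(DE3) were pooled and amplicon-sequenced on an Illumina HiSeq 2500. The library placed an intron with all eight P1ex-region nucleotides randomised inside the knt kanamycin-resistance gene on pET-22b(+), and cells grew overnight at 37°C or 30°C on LB agar with or without 25 μg/mL kanamycin (plus 100 μg/mL carbenicillin, 50 μM IPTG, 0.2% rhamnose). Fitness is the DiMSum error-weighted combination of wild-type-normalised replicate fold changes, kanamycin versus none.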

Row | Sequence | self-splicing fitness (ln) (30 °C) | self-splicing fitness (ln) (37 °C)
1 | UUGGAGCAAUAUUACGCUCC | -2.79 ± 0.33 | -0.876 ± 0.46
2 | GUCCAGCAAUAUUACGACCU | -2.17 ± 0.19 | -1.13 ± 0.2
3 | GUUGAGCAAUAUUACGUAUG | -2.76 ± 0.34 | -1.52 ± 0.29
4 | GCAUAGCAAUAUUACGGUCU | -1.57 ± 0.098 | -0.521 ± 0.092
5 | UUAAAGCAAUAUUACGCCCA | 0.818 ± 0.11 | 0.402 ± 0.14
6 | GCCAAGCAAUAUUACGGUCA | -1.59 ± 0.078 | -0.271 ± 0.067
7 | AUGAAGCAAUAUUACGAAGA | -1.9 ± 0.13 | -0.83 ± 0.16
8 | CUGAAGCAAUAUUACGCCGC | -3.17 ± 0.35 | 
9 | UGGCAGCAAUAUUACGCUGU | -2.97 ± 0.15 | -2.18 ± 0.21
10 | GCCAAGCAAUAUUACGGGCC |  | -2.13 ± 0.32
11 | GUACAGCAAUAUUACGCCGC | -3.01 ± 0.24 | -2.46 ± 0.45
12 | CAAAAGCAAUAUUACGCAGG | -2.51 ± 0.1 | -1.24 ± 0.087
13 | UGGUAGCAAUAUUACGUGGG | -3.64 ± 0.3 | -2.14 ± 0.19
14 | CACUAGCAAUAUUACGAUUU | -2.4 ± 0.12 | -2.2 ± 0.15
15 | ACCGAGCAAUAUUACGCAAA | -3.62 ± 0.24 | -3.11 ± 0.24
16 | AACCAGCAAUAUUACGAGGU | -3.14 ± 0.16 | -2.53 ± 0.16
17 | CUUUAGCAAUAUUACGUGUC | -2.98 ± 0.21 | -1.55 ± 0.17
18 | ACAGAGCAAUAUUACGAUGA | -1.49 ± 0.17 | -1.15 ± 0.16
19 | UUGUAGCAAUAUUACGUAGC | -3.44 ± 0.31 | -2.87 ± 0.25
20 | UACUAGCAAUAUUACGUUAC | -3.86 ± 0.27 | -2.44 ± 0.3
21 | AUUCAGCAAUAUUACGUAGA | -1.35 ± 0.066 | -0.424 ± 0.094
22 | GCUGAGCAAUAUUACGUUGC | -4.04 ± 0.2 | -2.53 ± 0.17
23 | UCACAGCAAUAUUACGAGAU | -4.39 ± 0.25 | -2.85 ± 0.24
24 | GCGUAGCAAUAUUACGCGAG |  | -2.54 ± 0.27
25 | CUACAGCAAUAUUACGAACU | -4.38 ± 0.24 | -2.02 ± 0.25

Row | Sequence | self-splicing fitness (ln) (30 °C) | self-splicing fitness (ln) (37 °C)
26 | GUAUAGCAAUAUUACGUGGC | -3.62 ± 0.33 | -2.09 ± 0.28
27 | CAGGAGCAAUAUUACGGUGA | -2.96 ± 0.22 | -3 ± 0.27
28 | ACUGAGCAAUAUUACGUCGC | -3.35 ± 0.26 | -2.18 ± 0.21
29 | UCGAAGCAAUAUUACGUAUG | -2.78 ± 0.16 | -1.33 ± 0.15
30 | ACGUAGCAAUAUUACGUUGA | -3.4 ± 0.29 | -2.78 ± 0.28
31 | CUGCAGCAAUAUUACGCUAC | -4.2 ± 0.36 | -2.17 ± 0.16
32 | AGGCAGCAAUAUUACGCGUC | -3.34 ± 0.3 | -2.54 ± 0.3
33 | GCCGAGCAAUAUUACGGAGC | -2.69 ± 0.44 | 
34 | UAUCAGCAAUAUUACGCGGU | -2.68 ± 0.13 | -2.97 ± 0.27
35 | AGGUAGCAAUAUUACGUGGG | -3.908 ± 0.027 | -2.98 ± 0.039
36 | ACAAAGCAAUAUUACGAAUU | -3.38 ± 0.2 | -2.12 ± 0.18
37 | GUAUAGCAAUAUUACGGGCU | -2.86 ± 0.17 | -1.38 ± 0.19
38 | UUCUAGCAAUAUUACGUCUC | -3.85 ± 0.37 | -2.23 ± 0.25
39 | CUUCAGCAAUAUUACGUGAA | -2.71 ± 0.12 | -2.72 ± 0.2
40 | CACCAGCAAUAUUACGGAGG | -1.85 ± 0.078 | -1.4 ± 0.11
41 | UUGCAGCAAUAUUACGAUGG | -0.811 ± 0.14 | -1.07 ± 0.19
42 | UAAUAGCAAUAUUACGGAUC |  | -2.05 ± 0.41
43 | UGGAAGCAAUAUUACGAACC | -1.6 ± 0.13 | -0.663 ± 0.12
44 | CAAUAGCAAUAUUACGUGUU | -4.08 ± 0.16 | -2.95 ± 0.17
45 | UAUGAGCAAUAUUACGAAGG | -3.5 ± 0.2 | -1.4 ± 0.22
46 | UUUAAGCAAUAUUACGGGCU | -2.91 ± 0.3 | -2.18 ± 0.3
47 | GUAAAGCAAUAUUACGGUCA | -0.163 ± 0.072 | 0.362 ± 0.097
48 | UCCGAGCAAUAUUACGGCUA | -0.436 ± 0.096 | -0.18 ± 0.1
49 | ACUUAGCAAUAUUACGCUCC | -1.44 ± 0.22 | 0.041 ± 0.19
